Results from patent publication US20220073650A1 (AFFIRIS, published 2022).
No end group written: not given here.

T1: peptide p6773 (human, not fully specified (residue 18))
T1 peptide: LPQPPPQAQPLLPQPQPC

T2: peptide p7552 (human, not fully specified (residue 1))
T2 peptide: CSSEIVLD

T3: peptide p7564 (human, not fully specified (residue 1))
T3 construct: also called 'cleaved' peptide
T3 peptide: CPSDSSEIVLD

T4: peptide p7562 (human, not fully specified (residue 1))
T4 peptide: CDSSEIVLD


Legend:
[1] = target: T5, recombinant N-terminal Huntingtin fragment recHTT610 (human, UniProt P42858 1-610); assay: recHTT610 capture ELISA
T5 construct: range 1-610; Used as extract of transiently transfected HEK293 cells, captured by anti-V5 antibody on the plate or spiked into human serum; also called recombinant HTT610; recombinant Huntingtin; not shown: two C-terminal V5 tags
Procedure: Binding of antibodies to N-terminal fragment HTT610 was determined by a standard protein capture ELISA procedure using Maxisorb™ ELISA plates (Thermo; CatNr. 439454), coated with 50 μl of a 1:5000 rabbit anti V5 mAB (Sigma, CatNr. V8137), blocking with blocking buffer (PBS, 1% BSA, 0.1% Tween 20), capturing of recombinant Huntingtin from HEK cell extracts (100 ng/μl total protein) followed by incubation with several dilutions of mouse anti HTT sera (1:100; 1:300 and 1:900) or with mAB2166 as reference (diluted 1:2000; Millipore, Cat Nr. MAB2166) for 1 hour at RT. ELISA incubations, washing and detection procedures were performed according to standard procedures.

[2] = target: T1, peptide p6773; assay: peptide ELISA
[3] = target: T2, peptide p7552; assay: peptide ELISA
[4] = target: T3, peptide p7564; assay: peptide ELISA
[5] = target: T4, peptide p7562; assay: peptide ELISA

T5 sequence (P42858 1-610): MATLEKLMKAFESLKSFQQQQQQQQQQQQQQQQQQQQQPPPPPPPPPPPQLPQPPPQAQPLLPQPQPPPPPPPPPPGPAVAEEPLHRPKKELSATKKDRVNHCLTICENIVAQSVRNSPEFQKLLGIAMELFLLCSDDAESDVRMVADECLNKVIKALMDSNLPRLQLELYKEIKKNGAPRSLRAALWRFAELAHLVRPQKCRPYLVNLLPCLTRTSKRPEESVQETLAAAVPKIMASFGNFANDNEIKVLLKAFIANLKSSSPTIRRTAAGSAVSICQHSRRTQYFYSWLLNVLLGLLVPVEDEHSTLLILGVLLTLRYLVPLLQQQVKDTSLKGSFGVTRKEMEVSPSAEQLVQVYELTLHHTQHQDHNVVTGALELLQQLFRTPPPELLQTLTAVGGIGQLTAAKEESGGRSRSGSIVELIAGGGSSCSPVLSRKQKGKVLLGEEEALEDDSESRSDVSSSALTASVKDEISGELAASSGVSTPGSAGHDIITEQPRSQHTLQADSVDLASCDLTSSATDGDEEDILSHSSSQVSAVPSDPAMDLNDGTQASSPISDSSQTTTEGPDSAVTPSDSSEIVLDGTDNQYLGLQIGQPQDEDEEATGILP

signal to noise ratio (reHTT610-specific signal: HEK ctrl extracts) [1] | binding result [2] | binding result [3] | binding result [4] | binding result [5] | Binder
≥ 4 | binds |  |  |  | monoclonal antibody PRR13 (antibody, V domains shown, Mouse IgG2a from hybridoma, immunogen p6773; also called mAB PRR13; PPR13) VH: EVQLQQSAPELVKPGASVKMSCKASGYSFTDFYMKWVKQSHGKGLEWIGDIDPKNGDTFYNQKFKGRATLTVDKSSSTAYMQLNSLTTEDSAVYYCATYYGYTMDYWGQGTSVTVSS VL: QIVLTQSPAIMSASLGERVTMTCTASSSVTSSYLHWYQQKPGSSPKLWIYSTSNLASGVPARFSGSGSGTSYSLTISSMEAEDAATYYCHQYRRPPRTFGGGTKLEIKR
 |  | binds | binds | binds | monoclonal antibody M1D1 (antibody, V domains shown, Typed as mouse IgM; hybridoma, immunogen p7564; also called mAB M1D1) VH: EVQLVESGGGLVQPKGSLKLSCAASGFTFNTYAMNWVRQAPGKGLEWVARIRSKSNNYATYYADSVKDRFTISRDDSQSMLYLQMNNLKTEDTAMYYCVRHGEYGNPWFAYWGQGTLVTVSA VL: not shown
